Measured values: patent publication US12286661B2, “Methods for making high intensity sweeteners” (Firmenich Incorporated, priority 2018, dated 2025)

Tested on: cucurbitadienol
Assay: 11-OH cucurbitadienol production from cucurbitadienol by CYP450s expressed in S. cerevisiae, LCMS
Format: cell-based
Details: S. cerevisiae strain producing cucurbitadienol and expressing SgCPR; LCMS peak area of product vs. internal reference; hits over vector only control
From the text: DNA was obtained through gene synthesis either through Genescript, IDT, or Genewiz. For some of the cucurbitadienol synthases, cDNA or genomic DNA was obtained through 10-60 day old seedlings followed by PCR amplification using specific and degenerate primers. DNA was cloned through standard molecular biology techniques or through yeast gap repair cloning (Joska et al., 2014) into one of the following overexpression vectors: pESC-Ura, pESC-His, or pESC-LEU. Gene expression was regulated by one of the following promoters; Gall, Gal10, Tef1, or GDS. Yeast transformation was performed using Zymo Yeast Transformation Kit II. Yeast strains were grown in standard media (YPD or SC) containing the appropriate selection with 2% glucose or 2% galactose for induction of heterologous genes. Yeast strains were grown in shake flask or 96 well plates at 30° ° C., 140-250 rpm. When indicated, lanosterol synthase inhibitor, Ro 48-8071 (Cayman Chemicals) was added (50 ug/ml). Yeast samples producing mogrol precursors, mogrol and mogrosides were processed through one of the following: • Cucurbitadienol and 11-OH Cucurbitadienol: Samples cell pellets were lysed (Yeast Buster) followed by ethyl acetate extraction, drying, and resuspension in methanol. • ·Mogrol and Mogrosides: Samples cell pellets were lysed in 50% ETOH, incubated at 80° C. for 30 min, filtered, dried and resuspended in MeOH for LCMS screening.
For analyzing 11-OH cucurbitadienol, the LCMS method included the use of C8 2.1×100 mm column, gradient 60 to 90% B for 6 minutes at flow rate of 0.55 ml/min. For the enzyme screening, the LCMS method used was a Waters Acquity UPLC Protein BEH C4, 2.1×100 mm, 1.7 μm column and a gradient of 40% to 80% over 5 minutes, 95% B from 5.1 to 5.6 minutes with a flow rate of 0.55 ml/min, and ESI source positive mode single ion monitoring of 425.4.
Additional CYP450s were expressed in S. cerevisiae strain producing cucurbitadienol and expressing SgCPR. DNA and protein sequences for the CYP450 enzymes are shown in SEQ IDs 871-890 and 1024-1049 (see Table 1).

| Molecule | Peak Area 11-OH CCB |
| --- | --- |
| SEQ ID NO. 1026/1027: CYP450 enzyme (DNA/protein SEQ ID NO) producing 11-OH cucurbitadienol (protein, listed as Cucumis sativus) MWTILLGLATLAIAYYIHWVNKWKDSKFNGVLPPGTMGLPLIGETIQLSRPSDSLDVHPFIQRKVKRYGPIFKTCLAGRPVVVSTDAEFNHYIMLQEGRAVEMWYLDTLSKFFGLDTEWLKALGLIHKYIRSITLNHFGAESLRERFLPRIEESARETLHYWSTQTSVEVKESAAAMVFRTSIVKMFSEDSSKLLTEGLTKKFTGLLGGFLTLPLNLPGTTYHKCIKDMKQIQKKLKDILEERLAKGVKIDEDFLGQAIKDKESQQFISEEFIIQLLFSISFASFESISTTLTLILNFLADHPDVVKELEAEHEAIRKARADPDGPITWEEYKSMNFTLNVICETLRLGSVTPALLRKTTKEIQIKGYTIPEGWTVMLVTASRHRDPEVYKDPDTFNPWRWKELDSITIQKNFMPFGGGLRHCAGAEYSKVYLCTFLHILFTKYRWRKLKGGKIARAHILRFEDGLYVNFTPKE | 0.9893 |
| SEQ ID NO. 1028/1029: CYP450 enzyme (DNA/protein SEQ ID NO) producing 11-OH cucurbitadienol (protein, Cucumis melo) MWTILLGLATLAIAYYIHWVNKWKDSKFNGVLPPGTMGLPLIGETIQLSRPSDSLDVHPFIQSKVKRYGPIFKTCLAGRPVVVSTDAEFNHYIMLQEGRAVEMWYLDTLSKFFGLDTEWLKALGLIHKYIRSITLNHFGAESLRERFLPRIEESARETLHYWSTQPSVEVKESAAAMVFRTSIVKMFSEDSSKLLTAGLTKKFTGLLGGFLTLPLNVPGTTYHKCIKDMKEIQKKLKDILEERLAKGVSIDEDFLGQAIKDKESQQFISEEFIIQLLFSISFASFESISTTLTLILNFLADHPDVAKELEAEHEAIRKARADPDGPITWEEYKSMNFTLNVICETLRLGSVTPALLRKTTKEIQIKGYTIPEGWTVMLVTASRHRDPEVYKDPDTFNPWRWKELDSITIQRNFMPFGGGLRHCAGAEYSKVYLCTFLHILFTKYRWRKLKGGKIARAHILRFEDGLYVNFTPKE | 0.9703 |
| SEQ ID NO. 1034/1035: CYP450 enzyme (DNA/protein SEQ ID NO) producing 11-OH cucurbitadienol (protein, Cucurbita pepo) MEIINGVFLILPLGFVLVFEVLKRLNGLYYAVKLGKKWGELPPGDLSWPLLGSTLSFLKSFTVGPPESFIRIFTTRYGKVDMYKTHMFGRASILVCKPEICRQVLIDETKFVPSYPACMKRLFGRKSLIRVSKAEHRKLRRMTMAPISSHAALEIYIEHTEHTVISGLEEWSSVEKPLKLLTEIKELTFKIIWNIFMGSTSIDYTTKEMEALYDDVALGLFCFPINFPGFNFHKSLKARKRLYEILLSIVNEKRLMKKSKGESWEAKDMMDLMTEVEDEDGEGMDNETITDLIFGKLFAGHETSAFTTMWAIIFLTDHPHIFQRAKEEQEDIIRRRPSTQKGINLVEFKQMKFLSQVIDETLRLSSIAFATFREATTDININGKLIPKGWKVILWHRGLYMDEELHPSPQDFNPSRWDDFIGNPGAFTPFGLGVRLCPGRDLAKLEISIFLHHFLLNYKIERYNPQCQLTYLPLPHPKDKCLARVLKAAGQCV | 0.3854 |
| SEQ ID NO. 1030/1031: CYP450 enzyme (DNA/protein SEQ ID NO) producing 11-OH cucurbitadienol (protein, Quercus suber) MWTIGLCIVAVLVIYLSYRLNKWSNPKCNGILPPGSMGLPLIGETLQLIVPSYSLDLHPFIKKKAQKYGPIFRTSVAGSPIVVSIDPEFNHYIVKQEGRLVELWYLDSFSKLFSTEGENKTNAIGVVHKYIRSIALNHFGVDPLKEKLLPQIEEFVDKALQTWSSHPLVEMKHAASVMIFDFSAKLFISYDAENSPMKMSEKFTNILGGFMSFPLNIPGTTYHKCLKDRNEALSMLRKIFKERINSPKRHFEDLLDQAINDTDKEKFLPEDFIINVVFGLLFASFESISAALSLILNLLAEHPAVLQELTDEHKAILKNRESPNSILTWDEYKSMTFTHQVINEALRLGGVAPGLLRKALKDIEFKGYTIPAGWTIMLVNSAIQLNPNTYKDPLAFNPWRWKDLDSLFVSKNFMPFGGGIRQCVGAEYSKTFLATFLHVLVTKYRWTKVKGGTIVRNPILEFTDGLHIKFSAISN | 0.9207 |
| SEQ ID NO. 1036/1037: CYP450 enzyme (DNA/protein SEQ ID NO) producing 11-OH cucurbitadienol (protein, listed as Lagenaria siceraria) MELIINNWLLILSCVGFALGLGVLKRLNNLYYAIKLGKKWDEVPPGDLSWPLLGSTLSFIKYFTLGPPHNFIAQFSNRYGKVDMYKTHIFGRASIIVCKPEICRQVLTDETKFAPGYPTTMTSLFGRRSLHRVSKVEHRKLRRLTTTPISSHAALELYIDHIEHTVINGLEEWSSMEKPLELLTVIKELTFKIIWNIFMGSTPMGSIAIREMEALYNDISLGFFCLPINFPGFYFHKSLKARKRLHEILQCIVNEKRLVKKSKGETWEAKDMMDLMIEVRDEDGEGMDDETIVDLIFGKLFAGQETSAFTTMWAILFLTNNPHVFQKAKVIDETLRVSSITFATFREAMTDVKINGKIIPKGWKVILWLRELNMDEKLHTSPQEFNPSRWDNFIGNPGAFTPFGLGVRMCPGRDLAKLEISIFLHYFLLNYKVEQLNPQCQLDYLPIPHPKDKCLARVLKVA | 0.3833 |
| SEQ ID NO. 1032/1033: CYP450 enzyme (DNA/protein SEQ ID NO) producing 11-OH cucurbitadienol (protein, listed as Cucurbita maxima) MWTIVVGLATLAVAYYIHWINKWKDSKFNGVLPPGTMGLPLIGETLQLSRPSDSLDVHPFIKKKVKRYGSIFKTCLAGRPVVVSTDAEFNNYIMLQEGRAVEMWYLDTLSKFFGLDTEWLKALGFIHKYIRSITLNHFGAESLRERFLPRIEESAKETLCYWATQPSVEVKDSAAVMVFRTSMVKMVSKDSSKLLTGGLTKKFTGLLGGFLTLPINVPGTTYNKCMKDMKEIQKKLREILEGRLASGAGSDEDFLGQAVKDKGSQKFISDDFIIQLLFSISFASFESISTTLTLILNYLADHPDVVKELEAEHEAIRNARADPDGPITWEEYKSMTFTLHVIFETLRLGSVTPALLRKTTKELQINGYTIPEGWTVMLVTASRHRDPAVYKDPHTFNPWRWKELDSITIQKNFMPFGGGLRHCAGAEYSKVYLCTFLHILFTKYRWTKLKGGKVARAHILSFEDGLHMKFTPKE | 0.4459 |
| SEQ ID NO. 889/890: CYP450 enzyme (DNA/protein SEQ ID NO) producing 11-OH cucurbitadienol (protein, Pathway step 3 sequence T CYP88D6 (codon optimized)) MEVHWVCMCAATLLVCYIFGSKFVRNLNGWYYDVKLRRKEHPLPPGDMGWPLMGNLLSFIKDFSSGHPDSFINNLVLKYGRSGIYKTHLFGNPSIIVCEPQMCRRVLTDDVNFKLGYPKSIKELARCRPMIDVSNAEHRLFRRLITSPIVGHKALAMYLERLEEIVINSLEELSSMKHPVELLKEMKKVSFKAIVHVFMGSSNQDIIKKIGSSFTDLYNGMFSIPINVPGFTFHKALEARKKLAKIVQPVVDERRLMIENGQQEGDQRKDLIDILLEVKDENGRKLEDEDISDLLIGLLFAGHESTATSLMWSITYLTQHPHILKKAKEEQEEIMRTRLSSQKQLSFKEIKQMVYLSQVIDETLRCANIAFATFREATADVNINGYIIPKGWRVLIWARAIHMDSEYYPNPEEFNPSRWDDYNAKAGTFLPFGAGSRLCPGADLAKLEISIFLHYFLLNYRLERVNPECHVTSLPVSKPTDNCLAKVMKVSCA | 0.649 |
